Source: patent US20250145729A1 (DENALI THERAPEUTICS, published 2025)

What was measured:
cyno CD98hc = biological target: T1, cyno CD98hc (cynomolgus monkey); experiment: SPR (Biacore)
T1 construct: also called cynomolgus CD98hc; cyCD98hc
In short: (§1)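 Binding affinity (Kd) of the engineered Fc polypeptides for CD98hc was measured by surface plasmon resonance on a Biacore instrument. Clones were cloned, expressed and purified as Fc-Fab fusions carrying anti-BACE1 Fabs. They were tested in a bivalent format or in a monovalent knob/hole format with the CD98hc-binding site on the knob chain only. The text gives no concentrations, temperature, buffer or replicate numbers.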

human CD98hc = biological target: T2, human CD98hc (human, UniProt P08195 109-529); experiment: SPR (Biacore)
T2 construct: also called huCD98hc; CD98 heavy chain
T2 sequence: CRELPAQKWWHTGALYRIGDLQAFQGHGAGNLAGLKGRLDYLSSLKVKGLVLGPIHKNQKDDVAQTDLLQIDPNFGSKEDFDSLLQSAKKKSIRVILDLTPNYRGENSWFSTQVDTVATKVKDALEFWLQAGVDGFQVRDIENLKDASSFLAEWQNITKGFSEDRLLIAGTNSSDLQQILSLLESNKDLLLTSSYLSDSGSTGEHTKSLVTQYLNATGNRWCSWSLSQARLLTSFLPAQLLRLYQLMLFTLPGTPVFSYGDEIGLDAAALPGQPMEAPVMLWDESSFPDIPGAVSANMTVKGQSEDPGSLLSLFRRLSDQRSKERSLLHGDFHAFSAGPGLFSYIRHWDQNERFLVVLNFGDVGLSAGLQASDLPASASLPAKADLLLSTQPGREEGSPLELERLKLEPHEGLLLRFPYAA
In short: as §1

[1] = biological target: T3, circularly permuted cyno TfR apical domain (cynomolgus monkey); experiment: SPR, supernatant, anti-Fab capture
T3 construct: same design as the human construct; also called cyTfR Apical Domain; cynomolgus TfR apical domain
T3 chain: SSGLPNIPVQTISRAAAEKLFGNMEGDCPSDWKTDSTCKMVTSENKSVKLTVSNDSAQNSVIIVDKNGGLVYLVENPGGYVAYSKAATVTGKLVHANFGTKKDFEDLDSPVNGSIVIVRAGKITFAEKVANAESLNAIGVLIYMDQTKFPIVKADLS
Protocol: (§2) Clones were expressed in HEK293 cells. Supernatants were captured for SPR by GE Healthcare anti-human Fab capture kit and the affinity to human and cyno TfR apical domain was measured (Table 30). The clones in Table 30 were bivalent and each TfR-binding Fc polypeptide also contained P329G and LALA mutations.

[2] = biological target: T4, circularly permuted human TfR apical domain (human); experiment: SPR, supernatant, anti-Fab capture
T4 construct: TfR residues 326-379 stand N-terminal to 194-296, loop 297-325 deleted; also called huTfR Apical Domain
T4 chain: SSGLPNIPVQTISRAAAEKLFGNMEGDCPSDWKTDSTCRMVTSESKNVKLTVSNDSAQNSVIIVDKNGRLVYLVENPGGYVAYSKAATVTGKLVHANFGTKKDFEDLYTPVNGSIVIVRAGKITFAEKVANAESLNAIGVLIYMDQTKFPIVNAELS
Protocol: as §2

B1: LLB2-1 (Fc fusion)
chain: APELLGGPSVFLFPPKPKDTLMISRTPEVTCVVVDVSHEDPEVKFNWYVDGVEVHNAKTKPREEQYNSTYRVVSVLTVLHQDWLNGKEYKCKVSNKALPAPIEKTISKAKGQPREPQVYTLPPSRDELTKNQVSLTCLVKGFYPSDIAVLWNSRFSLENNYKTTPPVLDSDGSFFLYSKLTVDKSRWQQGNIFACNVLHEALHNHYTFKNLSLSPGK
notes: Fc part only
- Kd (cyno CD98hc): 4300 nM
- Kd (human CD98hc): 950 nM

B2: LLB2-4 (Fc fusion)
chain: APELLGGPSVFLFPPKPKDTLMISRTPEVTCVVVDVSHEDPEVKFNWYVDGVEVHNAKTKPREEQYNSTYRVVSVLTVLHQDWLNGKEYKCKVSNKALPAPIEKTISKAKGQPREPQVYTLPPSRDELTKNQVSLTCLVKGFYPSDIAVLWSSRFSLENNYKTTPPVLDSDGSFFLYSKLTVDKSRWQQGNIFACNVLHEALHNHYTFKNLSLSPGK
notes: Fc part only
- Kd (human CD98hc): 1700 nM

B3: LLB2-2 (Fc fusion)
chain: APELLGGPSVFLFPPKPKDTLMISRTPEVTCVVVDVSHEDPEVKFNWYVDGVEVHNAKTKPREEQYNSTYRVVSVLTVLHQDWLNGKEYKCKVSNKALPAPIEKTISKAKGQPREPQVYTLPPSRDELTKNQVSLTCLVKGFYPSDIAVIWNSRFSLENNYKTTPPVLDSDGSFFLYSKLTVDKSRWQQGNIFACNVLHEALHNHYTFKNLSLSPGK
notes: Fc part only
- Kd (human CD98hc): 1300 nM

B4: LLS2.33.3 (Fc fusion)
chain: APELLGGPSVFLFPPKPKDTLMISRTPEVTCVVVDVSHEDPEVKFNWYVDGVEVHNAKTKPREEQYNSTYRVVSVLTVLHQDWLNGKEYKCKVSNKALPAPIEKTISKAKGQPREPQVYTLPPSRDELTKNQVSLTCLVKGFYPSDIAVEWSSQYELENNYKTTPPVLDSDGSFFLYSKLTVDKSRWQQGNMFACNVWHEALHNHYTFKNLSLSPGK
notes: Fc part only; also called LLB2.33.3
- Kd (human CD98hc): 5400 nM

B5: LLB2-19 (Fc fusion)
chain: APELLGGPSVFLFPPKPKDTLMISRTPEVTCVVVDVSHEDPEVKFNWYVDGVEVHNAKTKPREEQYNSTYRVVSVLTVLHQDWLNGKEYKCKVSNKALPAPIEKTISKAKGQPREPQVYTLPPSRDELTKNQVSLTCLVKGFYPSDIVVLWNSRFSLEANVKTTPPVLDSDGSFFLYSKLTVDKSRWQQGQIFACNVLHEALHNHVTFKNLVLSPGK
notes: Fc part only
- Kd (human CD98hc): 9200 nM

B6: LLB2-7 (Fc fusion)
chain: APELLGGPSVFLFPPKPKDTLMISRTPEVTCVVVDVSHEDPEVKFNWYVDGVEVHNAKTKPREEQYNSTYRVVSVLTVLHQDWLNGKEYKCKVSNKALPAPIEKTISKAKGQPREPQVYTLPPSRDELTKNQVSLTCLVKGFYPSDIAVLWNSRYSLENNYKTTPPVLDSDGSFFLYSKLTVDKSRWQQGNIFACNVLHEALHNHYTFKNLSLSPGK
notes: Fc part only
- Kd (human CD98hc): 3600 nM

B7: LLB2-32 (Fc fusion)
chain: APELLGGPSVFLFPPKPKDTLMISRTPEVTCVVVDVSHEDPEVKFNWYVDGVEVHNAKTKPREEQYNSTYRVVSVLTVLHQDWLNGKEYKCKVSNKALPAPIEKTISKAKGQPREPQVYTLPPSRDELTKNQVSLTCLVKGFYPSDIAVLWLDFFSLENNYKTTPPVLDSDGSFFLYSKLTVDKSRWQQGNIFACNVFHEALHNHYTFKVLALSPGK
notes: Fc part only
- binding result (human CD98hc): no binding

B8: LLB2-8 (Fc fusion)
chain: APELLGGPSVFLFPPKPKDTLMISRTPEVTCVVVDVSHEDPEVKFNWYVDGVEVHNAKTKPREEQYNSTYRVVSVLTVLHQDWLNGKEYKCKVSNKALPAPIEKTISKAKGQPREPQVYTLPPSRDELTKNQVSLTCLVKGFYPSDIAVLWNSRFELENNYKTTPPVLDSDGSFFLYSKLTVDKSRWQQGNIFACNVLHEALHNHYTFKNLSLSPGK
notes: Fc part only
- Kd (cyno CD98hc): 3200 nM
- Kd (human CD98hc): 790 nM

B9: LLB2-34 (Fc fusion)
chain: APELLGGPSVFLFPPKPKDTLMISRTPEVTCVVVDVSHEDPEVKFNWYVDGVEVHNAKTKPREEQYNSTYRVVSVLTVLHQDWLNGKEYKCKVSNKALPAPIEKTISKAKGQPREPQVYTLPPSRDELTKNQVSLTCLVKGFYPSDIAVLWTQFFALENNYKTTPPVLDSDGSFFLYSKLTVDKSRWQQGNIFACNVIHEALHNHYTFKVPQLSPGK
notes: Fc part only
- binding result (human CD98hc): no binding

B10: LLB2-5 (Fc fusion)
chain: APELLGGPSVFLFPPKPKDTLMISRTPEVTCVVVDVSHEDPEVKFNWYVDGVEVHNAKTKPREEQYNSTYRVVSVLTVLHQDWLNGKEYKCKVSNKALPAPIEKTISKAKGQPREPQVYTLPPSRDELTKNQVSLTCLVKGFYPSDIAVLWNSKFSLENNYKTTPPVLDSDGSFFLYSKLTVDKSRWQQGNIFACNVLHEALHNHYTFKNLSLSPGK
notes: Fc part only
- Kd (human CD98hc): 1900 nM

B11: LLB2-27 (Fc fusion)
chain: APELLGGPSVFLFPPKPKDTLMISRTPEVTCVVVDVSHEDPEVKFNWYVDGVEVHNAKTKPREEQYNSTYRVVSVLTVLHQDWLNGKEYKCKVSNKALPAPIEKTISKAKGQPREPQVYTLPPSRDELTKNQVSLTCLVKGFYPSDIAVLWMNHFTLENNYKTTPPVLDSDGSFFLYSKLTVDKSRWQQGNIFACNVMHEALHNHYTFKPLPLSPGK
notes: Fc part only
- binding result (human CD98hc): no binding

B12: LLB2-29 (Fc fusion)
chain: APELLGGPSVFLFPPKPKDTLMISRTPEVTCVVVDVSHEDPEVKFNWYVDGVEVHNAKTKPREEQYNSTYRVVSVLTVLHQDWLNGKEYKCKVSNKALPAPIEKTISKAKGQPREPQVYTLPPSRDELTKNQVSLTCLVKGFYPSDIAVLWYDLFVLENNYKTTPPVLDSDGSFFLYSKLTVDKSRWQQGNIFACNVLHEALHNHYTFKEPFLSPGK
notes: Fc part only
- binding result (human CD98hc): no binding

B13: LLB2-3 (Fc fusion)
chain: APELLGGPSVFLFPPKPKDTLMISRTPEVTCVVVDVSHEDPEVKFNWYVDGVEVHNAKTKPREEQYNSTYRVVSVLTVLHQDWLNGKEYKCKVSNKALPAPIEKTISKAKGQPREPQVYTLPPSRDELTKNQVSLTCLVKGFYPSDIAVMWNSRFSLENNYKTTPPVLDSDGSFFLYSKLTVDKSRWQQGNIFACNVLHEALHNHYTFKNLSLSPGK
notes: Fc part only
- Kd (human CD98hc): 1200 nM

B14: 42.8.206 (Fc fusion)
chain: APEAAGGPSVFLFPPKPKDTLMISRTPEVTCVVVDVSHEDPEVKFNWYVDGVEVHNAKTKPREEQYNSTYRVVSVLTVLHQDWLNGKEYKCKVSNKALGAPIEKTISKAKGQPREPQVYTLPPSRDELTKNQVSLTCLVKGFYPSDIAVEWFYEDQKETNYKTTPPVLDSDGSFFLYSKLTVDKSRWQQGNLFACEVMHEALHNHYTYKLLSLSPGK
notes: bivalent; P329G+LALA
- Kd [1]: 10800 nM
- Kd [2]: 827 nM

B15: 42.8.211 (Fc fusion)
chain: APEAAGGPSVFLFPPKPKDTLMISRTPEVTCVVVDVSHEDPEVKFNWYVDGVEVHNAKTKPREEQYNSTYRVVSVLTVLHQDWLNGKEYKCKVSNKALGAPIEKTISKAKGQPREPQVYTLPPSRDELTKNQVSLTCLVKGFYPSDIAVEWFYEDSKENNYKTTPPVLDSDGSFFLYSKLTVDKSRWQQGNLFACEVMHEALHNHYTYKLLSLSPGK
notes: bivalent; P329G+LALA
- Kd [1]: 10700 nM
- Kd [2]: 966 nM

B16: 42.8.214 (Fc fusion)
chain: APEAAGGPSVFLFPPKPKDTLMISRTPEVTCVVVDVSHEDPEVKFNWYVDGVEVHNAKTKPREEQYNSTYRVVSVLTVLHQDWLNGKEYKCKVSNKALGAPIEKTISKAKGQPREPQVYTLPPSRDELTKNQVSLTCLVKGFYPSDIAVEWFYEDSKLNNYKTTPPVLDSDGSFFLYSKLTVDKSRWQQGNLFACEVMHEALHNHYTYKLLSLSPGK
notes: bivalent; P329G+LALA
- Kd [1]: 6090 nM
- Kd [2]: 427 nM

B17: 42.8.209 (Fc fusion)
chain: APEAAGGPSVFLFPPKPKDTLMISRTPEVTCVVVDVSHEDPEVKFNWYVDGVEVHNAKTKPREEQYNSTYRVVSVLTVLHQDWLNGKEYKCKVSNKALGAPIEKTISKAKGQPREPQVYTLPPSRDELTKNQVSLTCLVKGFYPSDIAVEWFYEDQKLTNYKTTPPVLDSDGSFFLYSKLTVDKSRWQQGNLFACEVMHEALHNHYTYKLLSLSPGK
notes: bivalent; P329G+LALA
- Kd [1]: 6030 nM
- Kd [2]: 380 nM

B18: 42.8.215 (Fc fusion)
chain: APEAAGGPSVFLFPPKPKDTLMISRTPEVTCVVVDVSHEDPEVKFNWYVDGVEVHNAKTKPREEQYNSTYRVVSVLTVLHQDWLNGKEYKCKVSNKALGAPIEKTISKAKGQPREPQVYTLPPSRDELTKNQVSLTCLVKGFYPSDIAVEWFYEDSKLTNYKTTPPVLDSDGSFFLYSKLTVDKSRWQQGNLFACEVMHEALHNHYTYKLLSLSPGK
notes: bivalent; P329G+LALA
- Kd [1]: 4940 nM
- Kd [2]: 293 nM
